Test results reported in the supplement of paper PMC12042874.
± gives the uncertainty stated by the source.

test: amyloid nucleation score (Sup35N fusion, yeast selection) (log enrichment); library NNK2; higher = more nucleation; inactive = no reads after selection
How it was run: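 On medium lacking adenine and uracil, psi-negative yeast expressing peptides of 20 random codons fused to Sup35N were grown 7 days at 30°C after a 24-hour induction with 100 μM copper sulfate. Illumina sequencing of input and output plasmid inserts gave the reads, and sequences under 100 input reads were excluded. The nucleation score is the DiMSum log enrichment of output over input reads, centred on the mode score of non-aggregating sequences.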

Row | Substance | amyloid nucleation score
1 | SFHLS | -0.019 ± 0.6
2 | SFIHDWTNFHGSLGFDYGCD | 0.112 ± 1.1
3 | SFIHFPFWFILHNRALTRRV | 0.057 ± 1.1
4 | SFKVMYKENNTNLGSLLWDG | 0.049 ± 0.21
5 | SFLFMKSTIRFIEL | -1.34 ± 0.36
6 | SFLRARLCCHMMGHSTLKYH | -0.72 ± 1.1
7 | SFLSRL | -0.4 ± 0.65
8 | SFLVSFHPMS | -1.33 ± 0.48
9 | SFNVSTMRLQIVSVLRKSRR | 0.236 ± 1.1
10 | SFNVYRASGVKVRQWAFHGG | 0.076 ± 0.61
11 | SFSNTAAYAKEYCRSYWVLV | inactive
12 | SFSRYF | -1.58 ± 0.75
13 | SFTAHTSIHASNLYTDLLLC | 3.41 ± 0.063
14 | SFTCLLSFKQSCHSFMPCPC | 1.03 ± 0.32
15 | SFTYASSV | -1.1 ± 0.28
16 | SFVCWITVCNFRVSQ | 3.21 ± 0.12
17 | SFVLIKIMILLCDAVYGH | 3.58 ± 0.054
18 | SFVTYSNSLFFTISSDSK | 6.826 ± 0.054
19 | SFVWRWRRSEFHQVMRGGWP | 2.15 ± 0.23
20 | SFWISVGLWFWLGEYMGRNE | 2.17 ± 0.12
21 | SGCFVWPELVGESSIIMCPS | inactive
22 | SGCTGFCRRGPVRCWGSCLL | inactive
23 | SGCVA | 0.474 ± 0.24
24 | SGDFI | inactive
25 | SGESSNCWLMIL | inactive
26 | SGFFAVGILITTLPLRGNER | 0.22 ± 0.45

Row | Substance | amyloid nucleation score
27 | SGFGCLFTMW | 1.63 ± 0.27
28 | SGFKLLGFTNYVHAVSMGSQ | 3.25 ± 0.15
29 | SGGLLKRWYRVDLGVVRYLY | inactive
30 | SGIALFKPSCSVGVAQFDYE | -0.024 ± 0.45
31 | SGILVKLVMIFSWKGGGV | 2.96 ± 0.066
32 | SGIWFQQDMMN | -0.258 ± 0.55
33 | SGLEQRGMFRRKNLPIKWCL | 3.89 ± 0.041
34 | SGLLVSNKFWGICTNYFGQR | 6.684 ± 0.045
35 | SGNHSLVLYDWDYVWYVTQY | -1.1 ± 0.45
36 | SGPWTSWLVSLG | -0.003 ± 1.1
37 | SGRHVNVLYYNFNGPDDQFK | 6.866 ± 0.029
38 | SGRLL | 1 ± 0.13
39 | SGRTGIGWYLFCRPYPIVYA | 0.277 ± 0.39
40 | SGRYFRIRRPYEDCQGREVA | 1.22 ± 0.38
41 | SGSYF | -0.504 ± 0.45
42 | SGTKPLCKQ | 1.22 ± 0.34
43 | SGTWMGAATY | 3.62 ± 0.11
44 | SGWWTKHRTMLKYYTLFAMG | -0.449 ± 0.44
45 | SGYPRRIYWLVGKCLWYHRA | 0.921 ± 0.48
46 | SHGELEVAMPDTGNI | -0.378 ± 0.32
47 | SHMHEEHIVEECTCSTPRRK | 1.32 ± 0.44
48 | SHNFRISYKSCVLNSCMKRL | inactive
49 | SHNGHVLVPNRVVSITSCHR | 0.147 ± 0.76
50 | SHNVGYCSVSCSCTWWHSCV | inactive
51 | SHTVGFSRAVRVCRGTDHT | 0.72 ± 0.38
52 | SHWLHGFSH | inactive

Row | Substance | amyloid nucleation score
53 | SIAHGQTSQNSTEWARVDG | 0.387 ± 0.29
54 | SIDYD | -0.627 ± 0.76
55 | SIFPRTCSNSACLWISSRKL | 4.259 ± 0.042
56 | SIFYLEGDHDLTTCTDLNTF | 3.13 ± 0.094
57 | SIHDQLGHYVFIV | -1.16 ± 0.62
58 | SIKGGSIEIEMYELESWVQL | -0.791 ± 1.1
59 | SIQCMISWQDRDNVEACKVE | 0.346 ± 0.21
60 | SIRQTCKFGYIMAWL | 7.064 ± 0.057
61 | SIRSVILLCATLTSVGASLS | 2.14 ± 0.14
62 | SISHQRMWKGCADEII | -0.242 ± 1.1
63 | SISTSTGLRRHPYNGPKIGM | -0.221 ± 0.32
64 | SITMELVYLPYQFMKSRRSW | 4.35 ± 0.067
65 | SIWYLGGC | -0.02 ± 0.42
66 | SIYSSGNALTYQRIHNWVGI | -0.953 ± 0.44
67 | SKCIASFNLRSYCMSRLASS | -1.15 ± 1.1
68 | SKGIDSEIHKRHRVRD | -0.206 ± 0.54
69 | SKGRHVMGLGCEGNIWLKEL | -0.377 ± 0.34
70 | SKGYCWNVICSRVSFTTYAL | 6.77 ± 0.061
71 | SKKELLNAVPVGMG | 0.113 ± 0.63
72 | SKLEENIPKLVTRYQCGTGR | 0.143 ± 0.37
73 | SKSVWMRLVS | -0.58 ± 0.24
74 | SLCPRYYGF | inactive
75 | SLDIDQTVRFTTK | 5.618 ± 0.036
76 | SLEKMWCRLFKGSQT | 1.11 ± 0.12
77 | SLFQCNGSCVIYSYGILLYL | 7.71 ± 0.082
78 | SLGNVELRQ | -0.679 ± 0.29

Row | Substance | amyloid nucleation score
79 | SLIKKFMLCFVYQREAHLLS | 0.402 ± 0.8
80 | SLLIYQMYE | -0.263 ± 0.76
81 | SLLMNMS | 0.269 ± 0.37
82 | SLLRIRQYVVWRLG | 0.079 ± 0.6
83 | SLMWDGANLYCMMVYSSVRN | 0.182 ± 1.1
84 | SLNRTTSSLVRW | 6.029 ± 0.037
85 | SLPDRKIKWESGGP | 0.646 ± 0.33
86 | SLPGLGFLRLFFQ | 0.089 ± 0.55
87 | SLQFVGYYFPFNRVCARSGA | -0.913 ± 0.45
88 | SLQGVM | -1.04 ± 0.44
89 | SLSCSESGVKNRKVVELGWM | 0.432 ± 0.32
90 | SLSVSTAVIVITLTNGEFIG | 2.64 ± 0.1
91 | SLSYDWFASHLWTYDGW | -1.03 ± 0.34
92 | SLTAVWDDLAMLKLWAEMEM | 0.053 ± 1.1
93 | SLTGSQSGQGDLCVLVRYNH | 3.84 ± 0.12
94 | SLTSSSICHRPHTCTVCV | -0.364 ± 0.33
95 | SLVIYV | -1.42 ± 0.62
96 | SLYFLTGWSFMMDQGVSTPC | 6.934 ± 0.058
97 | SLYLNKSSSSGRIQLYGLFT | 0.049 ± 1.1
98 | SLYVGFNRFFIRPVCCEVRG | -0.608 ± 1.1
99 | SMAFREILLLMGSMLSCIRS | -0.956 ± 1
100 | SMASGILCDAAYNACSQGCG | 0.632 ± 0.48
101 | SMDRLRRDGYLGSVVCYNRS | -0.935 ± 0.54
102 | SMFLMSCTDGVFHNRNLHVI | -0.662 ± 0.44
103 | SMGINSGGRWRADSVSVGLR | 0.786 ± 0.23
104 | SMLRY | 0.171 ± 0.6

Row | Substance | amyloid nucleation score
105 | SMLSSMYFKFPL | 2.07 ± 0.16
106 | SMNFRTTSSHSDILYPALC | 0.24 ± 0.48
107 | SMRYDRDNHKHPFNIEAMRY | -0.096 ± 0.46
108 | SMSLRTCSLSFVSWMKFKDG | 0.095 ± 0.45
109 | SMTTH | -0.777 ± 0.36
110 | SMVFFGPFIFYVANPITSFV | 5.54 ± 0.068
111 | SMYPGLDT | -0.353 ± 0.79
112 | SNDLTCTYVRIQCWAMEPAS | 5.142 ± 0.039
113 | SNFSMVCAVCV | 0.454 ± 0.34
114 | SNFVQSGG | 0.138 ± 0.46
115 | SNGFGCAEVSGYYVSN | -0.691 ± 0.79
116 | SNGFREYCATICNGTGDRRG | 0.651 ± 0.62
117 | SNIYRCPVMSIRSVSHS | 0.536 ± 0.66
118 | SNLLWAKSGPKAVWKPGRWD | 0.423 ± 0.41
119 | SNSFVVFSRVVTRKFVCVLW | -0.691 ± 0.46
120 | SNWCGFSSTIKSESY | inactive
121 | SNYVFTNRGLIFRDFRVSDE | 5.56 ± 0.086
122 | SPFIRHLNGSICRDNYFYVG | 3.03 ± 0.063
123 | SPHLGLMCK | 0.416 ± 0.8
124 | SPKRFTCSGDCSR | -0.573 ± 0.78
125 | SPSLVTNFVENGFFGVDLLS | inactive
126 | SPSTAMFGPMYSVCIHCEYL | 7.395 ± 0.051
127 | SPTER | 0.053 ± 0.65
128 | SPWKTFMQVLWDTWVARVCL | 0.515 ± 0.28
